This assay has as its target T1, human CXCR3 (hCXCR3) on Ba/F3 transfectant cells (human, UniProt P49682 1-368).
T1 sequence: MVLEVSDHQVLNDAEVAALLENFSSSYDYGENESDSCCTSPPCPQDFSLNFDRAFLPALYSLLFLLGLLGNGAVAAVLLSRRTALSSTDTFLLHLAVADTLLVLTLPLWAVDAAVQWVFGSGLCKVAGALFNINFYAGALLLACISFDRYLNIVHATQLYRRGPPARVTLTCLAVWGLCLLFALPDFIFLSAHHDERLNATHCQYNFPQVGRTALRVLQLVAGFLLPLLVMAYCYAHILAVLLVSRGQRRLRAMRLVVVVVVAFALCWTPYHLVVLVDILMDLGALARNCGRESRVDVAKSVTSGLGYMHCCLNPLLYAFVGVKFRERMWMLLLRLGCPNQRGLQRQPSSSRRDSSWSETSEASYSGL
Nature of the assay: cell-based or functional assay.

B1: hCXCL11.0058-G1T4k.one//VHn-G1T4h.one.H435R (Fc fusion)
chain 1: FYPMFKRGRCLCIGPGVKAVKVADIEKASIMYPSNNCDKIEVIITLKENKGQRCLNPKSKQARLIIKKVERKNFEPKSSDKTHTCPPCPAPELRRGPSVFLFPPKPKDTLMISRTPEVTCVVVDVSHEDPEVKFNWYVDGVEVHNAKTKPREEQYNSTYRVVSVLTVLHQDWLNGKEYKCKVSNKGLPSSIEKTISKAKGQPREPQVCTLPPSREEMTKNQVSLWCLVKGFYPSDIAVEWESNGQPENNYKTTPPVLDSDGSFFLYSKLTVDKSRWQEGNVFSCSVMHEALHNHYTQKSLSLSP
chain 2: EPKSSDKTHTCPPCPAPELRRGPSVFLFPPKPKDTLMISRTPEVTCVVVDVSHEDPEVKFNWYVDGVEVHNAKTKPREEQYNSTYRVVSVLTVLHQDWLNGKEYKCKVSNKGLPSSIEKTISKAKGQPREPQVYTLPPSRCEMTKNQVSLSCAVKGFYPSDIAVEWESNGQPENNYKTTPPVLDSDGSFFLVSKLTVDKSRWQEGNVFSCSVMHEALHNRYTQKSLSLSP
As to B1, the “Activity retention rate at 33 nM” value stood at 15%, the “Activity retention rate at 100 nM” value stood at 42%, the “Activity retention rate at 300 nM” value is 84% and the “Luminescence value at 33 nM” value was 1.12e+06. Moreover, the “Luminescence value at 100 nM” value was 7.07e+06 and the “Luminescence value at 300 nM” value turned out to be 1.04e+07.

Values taken from patent US20260217779A1 (Chugai, published 2026).
